Assay results taken from patent publication US20230118307A1, “THERAPEUTIC USE OF LONG-ACTING CONJUGATE OF TRIPLE AGONIST HAVING ACTIVITIES TO ALL OF GLUCAGON/GLP-1/GIP RECEPTORS FOR LUNG DISEASE” (HANMI PHARM. CO., LTD., priority 2020, published 2023).
Positions of bridges follow the written chain, without caps; N, C: chain ends. Non-standard residues stand in square brackets, D forms with d. No end group written: not given here. *: point of attachment. Acetyl(2-(4-imidazolyl)) = O=C(Cc1c[nH]cn1)*; Aib = CC(C)(N)C(=O)O

T1: human GIP receptor (human, UniProt P48546 22-466)
T1 sequence (looked up): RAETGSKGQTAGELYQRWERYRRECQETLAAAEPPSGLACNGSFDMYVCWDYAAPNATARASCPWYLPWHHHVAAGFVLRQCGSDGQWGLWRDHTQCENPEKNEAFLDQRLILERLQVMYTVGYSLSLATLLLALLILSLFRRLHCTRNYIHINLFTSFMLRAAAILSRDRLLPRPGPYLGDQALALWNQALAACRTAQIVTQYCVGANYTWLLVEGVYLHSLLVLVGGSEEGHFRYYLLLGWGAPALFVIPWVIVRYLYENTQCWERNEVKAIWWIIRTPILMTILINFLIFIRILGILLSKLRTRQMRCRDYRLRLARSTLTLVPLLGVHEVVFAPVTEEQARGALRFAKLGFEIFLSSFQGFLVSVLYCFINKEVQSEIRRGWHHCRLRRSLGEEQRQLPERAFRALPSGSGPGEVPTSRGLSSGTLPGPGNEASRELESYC


Key:
Experiment in all cases: cell-based or functional assay
human GIP receptor = target: T1, human GIP receptor
human GLP-1 receptor = human GLP-1 receptor (human, UniProt P43220 24-463)
human GCG receptor = human GCG receptor (human, UniProt P47871 26-477)
Chain of human GCG receptor (P47871 26-477): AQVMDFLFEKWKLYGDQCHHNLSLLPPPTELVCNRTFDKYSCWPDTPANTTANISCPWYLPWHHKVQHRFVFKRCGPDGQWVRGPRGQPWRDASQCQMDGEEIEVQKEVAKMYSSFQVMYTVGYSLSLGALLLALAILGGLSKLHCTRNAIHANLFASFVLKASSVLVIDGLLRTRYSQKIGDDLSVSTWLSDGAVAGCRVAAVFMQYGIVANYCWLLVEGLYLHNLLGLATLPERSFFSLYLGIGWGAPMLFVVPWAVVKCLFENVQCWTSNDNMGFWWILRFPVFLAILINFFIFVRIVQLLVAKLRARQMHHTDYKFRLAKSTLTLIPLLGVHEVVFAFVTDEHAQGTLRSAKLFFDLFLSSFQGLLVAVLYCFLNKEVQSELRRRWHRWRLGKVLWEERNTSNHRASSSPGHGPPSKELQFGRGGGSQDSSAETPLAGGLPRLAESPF

| Binder | In vitro Activity Compared to Native Peptide (%) vs. GIP (human GIP receptor) [%] | In vitro Activity Compared to Native Peptide (%) vs. GLP-1 (human GLP-1 receptor) [%] | In vitro Activity Compared to Native Peptide (%) vs. Glucagon (human GCG receptor) [%] |
| --- | --- | --- | --- |
| H[Aib]QGTFTSDYSIAMDEIHQKDFVNWLLNTKC (bridge 16-20) [triple agonist of SEQ ID NO: 35] | 1.3 | 7.5 | < 0.1 |
| H[Aib]QGTFTSDVSSYLLGQQQKEFIAWLVKGGGPSSGAPPPSC (ends and bridges not checked) [triple agonist of SEQ ID NO: 5] | < 0.1 | 42.1 | < 0.1 |
| [Acetyl(2-(4-imidazolyl))][Aib]QGTFTSDKSSYLDERAAQDFVQWLLDGGPSSGAPPPSS [triple agonist of SEQ ID NO: 38] | – | 2.3 | – |
| {Acetyl(2-(4-imidazolyl))}-[Aib]QGTFTSDYSICMDEIHQKDFVNWLLNTK (bridge 15-19) [triple agonist of SEQ ID NO: 49] | 3.3 | 29.8 | < 0.1 |
| HGQGTFTSDCSKQLDGQAAQEFVAWLLAGGPSSGAPPPS [triple agonist of SEQ ID NO: 44] | < 0.1 | 1.3 | < 0.1 |
| HGQGTFTSDCSKYLDGQRAQDFVNWLLAGGPSSGAPPPS [triple agonist of SEQ ID NO: 48] | < 0.1 | 1.5 | < 0.1 |
| HGQGTFTSDCSKYLDGQRAQEFVAWLLAGGPSSGAPPPS [triple agonist of SEQ ID NO: 47] | < 0.1 | 2.4 | < 0.1 |
| HGQGTFTSDCSKYMDGQAAQDFVAWLLAGGPSSGAPPPS [triple agonist of SEQ ID NO: 45] | < 0.1 | 6.6 | < 0.1 |
| HGQGTFTSDCSKYLDEQHAQEFVAWLLAGGPSSGAPPPS [triple agonist of SEQ ID NO: 46] | < 0.1 | 1.4 | < 0.1 |
| Y[Aib]QGTFTSDYSKYLDEKRAKEFVQWLLDHHCSSGQPPPS (bridge 16-20) [triple agonist of SEQ ID NO: 43] | 3.7 | 12.6 | 88.4 |
| H[Aib]QGTFTSDYSKYLDEKRQKEFVQWLLNTC (bridge 16-20) [triple agonist of SEQ ID NO: 51] | 0.1 | 14.4 | 2 |
| H[Aib]QGTFTSDYSKYLDGQHAQCFVAWLLAGGGPSSGAPPPS [triple agonist of SEQ ID NO: 39] | < 0.1 | 13.9 | 0.53 |
| H[Aib]QGTFTSDYSKYLDEKRQKEFVQWLLDTC (bridge 16-20) [triple agonist of SEQ ID NO: 52] | 0.3 | 44.1 | 7.5 |
| H[Aib]QGTFTSDYSKYLDECRQKEFVQWLLNGGPSSGAPPPSG (bridge 16-20) [triple agonist of SEQ ID NO: 37] | 2.2 | 236 | 6.21 |
| H[Aib]QGTFTSDYSKYLDEKRQKEFVNWLLAQC (bridge 16-20) [triple agonist of SEQ ID NO: 56] | 0.8 | 57.9 | 4.9 |
| H[Aib]QGTFTSDYSKYLCEKRQKEFVQWLLNGGPSSGAPPPSG (bridge 16-20) [triple agonist of SEQ ID NO: 36] | 0.2 | 37.4 | 0.39 |

| Binder | In vitro Activity Compared to Native Peptide (%) vs. GIP (human GIP receptor) [%] | In vitro Activity Compared to Native Peptide (%) vs. GLP-1 (human GLP-1 receptor) [%] | In vitro Activity Compared to Native Peptide (%) vs. Glucagon (human GCG receptor) [%] |
| --- | --- | --- | --- |
| Y[Aib]QGTFTSDYSKYLDEKRAKEFVQWLLDHHPSSGQPPPSC (bridge 16-20) [triple agonist of SEQ ID NO: 42] | 7.8 | 33.9 | 206 |
| H[Aib]QGTFTSDVSSYLLGQQQKEFIAWLVKGC [triple agonist of SEQ ID NO: 4] | < 0.1 | 8.5 | < 0.1 |
| H[Aib]EGTFTSDYSIAMDEIHQKDFVDWLLAEC (bridge 16-20) [triple agonist of SEQ ID NO: 54] | 0.1 | 30.6 | 1.4 |
| H[Aib]QGTFTSDKSKYLDERACQDFVQWLLDGGPSSGAPPPS [triple agonist of SEQ ID NO: 40] | < 0.1 | 75.2 | < 0.1 |
| H[Aib]QGTFTSDYSKYLDEKRQKEFVQWLLNTKC (bridge 16-20) [triple agonist of SEQ ID NO: 58] | 0.2 | 39.1 | 2.6 |
| H[Aib]QGTFTSDVSSYLDGQAAKEFVAWLLKGC [triple agonist of SEQ ID NO: 6] | < 0.1 | 17 | < 0.1 |
| H[Aib]EGTFTSDYSIAMDEIHQKDFVNWLLAQC (bridge 16-20) [triple agonist of SEQ ID NO: 53] | 1.3 | 161 | 8.4 |
| {Acetyl(2-(4-imidazolyl))}-[Aib]QGTFTSDYSIAMDEKHCKDFVNWLLNTK (bridge 15-19) [triple agonist of SEQ ID NO: 60] | 8.2 | 106 | < 0.1 |
| {Acetyl(2-(4-imidazolyl))}-[Aib]QGTFTSDYSICMDEKHQKDFVNWLLNTK (bridge 15-19) [triple agonist of SEQ ID NO: 59] | 4 | 40.3 | < 0.1 |
| H[Aib]QGTFTSDYSIAMDEIHQKDFVNWLLAQC (bridge 16-20) [triple agonist of SEQ ID NO: 55] | 2.4 | 27.1 | 0.7 |
| H[Aib]QGTFTSDYSKYLDEKRQKEFVNWLLAQKC (bridge 16-20) [triple agonist of SEQ ID NO: 34] | 0.6 | 19.1 | 0.92 |
| H[Aib]QGTFTSDYSKYLDEKRAKEFVQWLLDHHPSSGQPPPSC (bridge 16-20) [triple agonist of SEQ ID NO: 50] | 2.7 | 67.4 | 50.5 |
| H[Aib]QGTFTSDYSIAMDEIHQKDFVNWLLNTC (bridge 16-20) [triple agonist of SEQ ID NO: 57] | 0.3 | 11.7 | < 0.1 |
| H[Aib]QGTFTSDVSSYLDGQAAKEFIAWLVKGC [triple agonist of SEQ ID NO: 1] | < 0.1 | 3.2 | < 0.1 |
| H[Aib]QGTFTSDKSKYLDECAAQDFVQWLLDGGPSSGAPPPS [triple agonist of SEQ ID NO: 41] | < 0.1 | 34.3 | < 0.1 |
